# According to patent US20240109972A1, “ANTIBODY AND TAXANE COMBINATION THERAPY” (Genmab A/S, priority 2020, published 2024):
# Assay: GEN1046 in combination with docetaxel in metastatic NSCLC subjects, adverse effects
# Type: in vivo, human
# Experimental: Docetaxel was administered at a dose of 55 mg/m^2 or 75 mg/m^2 depending on the number of prior Dose Limiting Toxicities observed. The maximum tested dose of docetaxel was be 75 mg/m^2.
# Subjects with a histological or cytological diagnosis of non-squamous NSCLC must not have an EGFR-sensitizing mutation and/or ALK translocation/ROS1 rearrangement. EGFR sensitizing mutations are those mutations that are amenable to treatment with an approved TKI. Documentation of EGFR and ALK status should be available per local assessment.
# [1] = GEN1046 in combination with Docetaxel
substance,measurement,setting,value
"GEN1046: PD-L1×4-1BB bispecific antibody: PD-L1-547-FEAL combined with CD137-009-HC7LC2-FEAR (SEQ ID NOs: 1, 5, 21, 19; 8, 12, 22, 20)","Anemia Grade 5, GEN1046-related",GEN1046 + 75 mg/m^2 Docetaxel,0
same,"Blood thyroid stimulating hormone abnormal Grade 1, GEN1046-related",GEN1046 + 75 mg/m^2 Docetaxel,1
same,"Blood thyroid stimulating hormone abnormal Grade 2, GEN1046-related",GEN1046 + 75 mg/m^2 Docetaxel,0
same,"Blood thyroid stimulating hormone abnormal Grade 3, GEN1046-related",GEN1046 + 75 mg/m^2 Docetaxel,0
same,"Blood thyroid stimulating hormone abnormal Grade 4, GEN1046-related",GEN1046 + 75 mg/m^2 Docetaxel,0
same,"Blood thyroid stimulating hormone abnormal Grade 5, GEN1046-related",GEN1046 + 75 mg/m^2 Docetaxel,0
same,"Cough Grade 1, GEN1046-related",GEN1046 + 75 mg/m^2 Docetaxel,1
same,"Cough Grade 2, GEN1046-related",GEN1046 + 75 mg/m^2 Docetaxel,0
same,"Cough Grade 3, GEN1046-related",GEN1046 + 75 mg/m^2 Docetaxel,0
same,"Cough Grade 4, GEN1046-related",GEN1046 + 75 mg/m^2 Docetaxel,0
same,"Cough Grade 5, GEN1046-related",GEN1046 + 75 mg/m^2 Docetaxel,0
same,"Dry mouth Grade 1, GEN1046-related",GEN1046 + 75 mg/m^2 Docetaxel,1
same,"Dry mouth Grade 2, GEN1046-related",GEN1046 + 75 mg/m^2 Docetaxel,0
same,"Dry mouth Grade 3, GEN1046-related",GEN1046 + 75 mg/m^2 Docetaxel,0
same,"Dry mouth Grade 4, GEN1046-related",GEN1046 + 75 mg/m^2 Docetaxel,0
same,"Dry mouth Grade 5, GEN1046-related",GEN1046 + 75 mg/m^2 Docetaxel,0
same,"Dyspnea Grade 1, GEN1046-related",GEN1046 + 75 mg/m^2 Docetaxel,1
same,"Dyspnea Grade 2, GEN1046-related",GEN1046 + 75 mg/m^2 Docetaxel,2
same,"Dyspnea Grade 3, GEN1046-related",GEN1046 + 75 mg/m^2 Docetaxel,0
same,"Dyspnea Grade 4, GEN1046-related",GEN1046 + 75 mg/m^2 Docetaxel,0
same,"Dyspnea Grade 5, GEN1046-related",GEN1046 + 75 mg/m^2 Docetaxel,0
same,"Fatigue Grade 1, GEN1046-related",GEN1046 + 75 mg/m^2 Docetaxel,1
same,"Fatigue Grade 2, GEN1046-related",GEN1046 + 75 mg/m^2 Docetaxel,2
same,"Fatigue Grade 3, GEN1046-related",GEN1046 + 75 mg/m^2 Docetaxel,0
same,"Fatigue Grade 4, GEN1046-related",GEN1046 + 75 mg/m^2 Docetaxel,0
same,"Fatigue Grade 5, GEN1046-related",GEN1046 + 75 mg/m^2 Docetaxel,0
same,"Gastroesophageal reflux disease Grade 1, GEN1046-related",GEN1046 + 75 mg/m^2 Docetaxel,1
same,"Gastroesophageal reflux disease Grade 2, GEN1046-related",GEN1046 + 75 mg/m^2 Docetaxel,0
same,"Gastroesophageal reflux disease Grade 3, GEN1046-related",GEN1046 + 75 mg/m^2 Docetaxel,0
same,"Gastroesophageal reflux disease Grade 4, GEN1046-related",GEN1046 + 75 mg/m^2 Docetaxel,0
same,"Gastroesophageal reflux disease Grade 5, GEN1046-related",GEN1046 + 75 mg/m^2 Docetaxel,0
same,"Hiccups Grade 1, GEN1046-related",GEN1046 + 75 mg/m^2 Docetaxel,0
same,"Hiccups Grade 2, GEN1046-related",GEN1046 + 75 mg/m^2 Docetaxel,1
same,"Hiccups Grade 3, GEN1046-related",GEN1046 + 75 mg/m^2 Docetaxel,0
same,"Hiccups Grade 4, GEN1046-related",GEN1046 + 75 mg/m^2 Docetaxel,0
same,"Hiccups Grade 5, GEN1046-related",GEN1046 + 75 mg/m^2 Docetaxel,0
same,"Hyperglycemia Grade 1, GEN1046-related",GEN1046 + 75 mg/m^2 Docetaxel,1
same,"Hyperglycemia Grade 2, GEN1046-related",GEN1046 + 75 mg/m^2 Docetaxel,0
same,"Hyperglycemia Grade 3, GEN1046-related",GEN1046 + 75 mg/m^2 Docetaxel,1
same,"Hyperglycemia Grade 4, GEN1046-related",GEN1046 + 75 mg/m^2 Docetaxel,0
same,"Hyperglycemia Grade 5, GEN1046-related",GEN1046 + 75 mg/m^2 Docetaxel,0
same,"Lipase increased Grade 1, GEN1046-related",GEN1046 + 75 mg/m^2 Docetaxel,0
same,"Lipase increased Grade 2, GEN1046-related",GEN1046 + 75 mg/m^2 Docetaxel,1
same,"Lipase increased Grade 3, GEN1046-related",GEN1046 + 75 mg/m^2 Docetaxel,0
same,"Lipase increased Grade 4, GEN1046-related",GEN1046 + 75 mg/m^2 Docetaxel,0
same,"Lipase increased Grade 5, GEN1046-related",GEN1046 + 75 mg/m^2 Docetaxel,0
same,"Musculoskeletal chest pain Grade 1, GEN1046-related",GEN1046 + 75 mg/m^2 Docetaxel,0
same,"Musculoskeletal chest pain Grade 2, GEN1046-related",GEN1046 + 75 mg/m^2 Docetaxel,1
same,"Musculoskeletal chest pain Grade 3, GEN1046-related",GEN1046 + 75 mg/m^2 Docetaxel,0
same,"Musculoskeletal chest pain Grade 4, GEN1046-related",GEN1046 + 75 mg/m^2 Docetaxel,0
same,"Musculoskeletal chest pain Grade 5, GEN1046-related",GEN1046 + 75 mg/m^2 Docetaxel,0
same,"Nausea Grade 1, GEN1046-related",GEN1046 + 75 mg/m^2 Docetaxel,0
same,"Nausea Grade 2, GEN1046-related",GEN1046 + 75 mg/m^2 Docetaxel,1
same,"Nausea Grade 3, GEN1046-related",GEN1046 + 75 mg/m^2 Docetaxel,0
same,"Nausea Grade 4, GEN1046-related",GEN1046 + 75 mg/m^2 Docetaxel,0
same,"Nausea Grade 5, GEN1046-related",GEN1046 + 75 mg/m^2 Docetaxel,0
same,"Neutrophil count decreased Grade 1, GEN1046-related",GEN1046 + 75 mg/m^2 Docetaxel,0
same,"Neutrophil count decreased Grade 2, GEN1046-related",GEN1046 + 75 mg/m^2 Docetaxel,0
same,"Neutrophil count decreased Grade 3, GEN1046-related",GEN1046 + 75 mg/m^2 Docetaxel,0
same,"Neutrophil count decreased Grade 4, GEN1046-related",GEN1046 + 75 mg/m^2 Docetaxel,1
same,"Neutrophil count decreased Grade 5, GEN1046-related",GEN1046 + 75 mg/m^2 Docetaxel,0
same,"Palmar plantar erythrodysesthesia Syndrome (PPE) Grade 1, GEN1046-related",GEN1046 + 75 mg/m^2 Docetaxel,1
same,"Palmar plantar erythrodysesthesia Syndrome (PPE) Grade 2, GEN1046-related",GEN1046 + 75 mg/m^2 Docetaxel,0
same,"Palmar plantar erythrodysesthesia Syndrome (PPE) Grade 3, GEN1046-related",GEN1046 + 75 mg/m^2 Docetaxel,0
same,"Palmar plantar erythrodysesthesia Syndrome (PPE) Grade 4, GEN1046-related",GEN1046 + 75 mg/m^2 Docetaxel,0
same,"Palmar plantar erythrodysesthesia Syndrome (PPE) Grade 5, GEN1046-related",GEN1046 + 75 mg/m^2 Docetaxel,0
same,"Pruritus Grade 1, GEN1046-related",GEN1046 + 75 mg/m^2 Docetaxel,1
same,"Pruritus Grade 2, GEN1046-related",GEN1046 + 75 mg/m^2 Docetaxel,0
same,"Pruritus Grade 3, GEN1046-related",GEN1046 + 75 mg/m^2 Docetaxel,0
same,"Pruritus Grade 4, GEN1046-related",GEN1046 + 75 mg/m^2 Docetaxel,0
same,"Pruritus Grade 5, GEN1046-related",GEN1046 + 75 mg/m^2 Docetaxel,0
same,"Total treated subjects with related TEAEs Grade 1, GEN1046-related",GEN1046 + 75 mg/m^2 Docetaxel,4
same,"Total treated subjects with related TEAEs Grade 2, GEN1046-related",GEN1046 + 75 mg/m^2 Docetaxel,4
same,"Total treated subjects with related TEAEs Grade 3, GEN1046-related",GEN1046 + 75 mg/m^2 Docetaxel,2
same,"Total treated subjects with related TEAEs Grade 4, GEN1046-related",GEN1046 + 75 mg/m^2 Docetaxel,1
same,"Total treated subjects with related TEAEs Grade 5, GEN1046-related",GEN1046 + 75 mg/m^2 Docetaxel,0
same,"Vomiting Grade 1, GEN1046-related",GEN1046 + 75 mg/m^2 Docetaxel,1
same,"Vomiting Grade 2, GEN1046-related",GEN1046 + 75 mg/m^2 Docetaxel,0
same,"Vomiting Grade 3, GEN1046-related",GEN1046 + 75 mg/m^2 Docetaxel,0
same,"Vomiting Grade 4, GEN1046-related",GEN1046 + 75 mg/m^2 Docetaxel,0
same,"Vomiting Grade 5, GEN1046-related",GEN1046 + 75 mg/m^2 Docetaxel,0
same,Hepatotoxicity,[1],No reported drug-related hepatoxicities
same,Immune-related toxicities,[1],None reported
same,Serious adverse events related to GEN1046,"dose limiting toxicity period, in combination with Docetaxel",No serious adverse events
same,Dose Limiting Toxicity,with Docetaxel 55 mg/m^2 or 75 mg/m^2,No Dose Limiting Toxicity reported
